Our source for the percent of parent and response values is article PMC9119680.

Common to all, as to assay: Co-IP with immunoblot quantification
The target in one test is BLOS2 (UniProt Q9CWG9). As to conditions: uninfected cells cultured overnight; IP: BLOS1; parent: est. 100; read off a plot.
The target in a further test is KXD1 (UniProt Q80XH1). Particulars: uninfected cells cultured overnight; IP: BLOS1; parent: est. 100; read off a plot.
The target in a further test is PALLIDIN (UniProt Q9R0C0). As to conditions: uninfected cells cultured overnight; IP: BLOS1; parent: est. 100; read off a plot.
The target of another test is SNAPIN (UniProt Q9Z266). As to conditions: read off a plot.
Sequence of UniProt Q9Z266 (Q9Z266 whole entry): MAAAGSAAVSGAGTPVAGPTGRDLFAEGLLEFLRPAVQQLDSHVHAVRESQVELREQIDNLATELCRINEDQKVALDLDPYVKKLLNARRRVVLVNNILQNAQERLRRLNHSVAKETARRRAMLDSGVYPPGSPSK

Sequence of UniProt Q9R0C0 (Q9R0C0 whole entry): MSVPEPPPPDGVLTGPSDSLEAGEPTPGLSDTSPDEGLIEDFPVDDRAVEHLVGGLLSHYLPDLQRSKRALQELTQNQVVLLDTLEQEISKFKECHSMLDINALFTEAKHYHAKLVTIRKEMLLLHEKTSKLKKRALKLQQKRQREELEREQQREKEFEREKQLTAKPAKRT
Sequence of UniProt Q80XH1 (Q80XH1 whole entry): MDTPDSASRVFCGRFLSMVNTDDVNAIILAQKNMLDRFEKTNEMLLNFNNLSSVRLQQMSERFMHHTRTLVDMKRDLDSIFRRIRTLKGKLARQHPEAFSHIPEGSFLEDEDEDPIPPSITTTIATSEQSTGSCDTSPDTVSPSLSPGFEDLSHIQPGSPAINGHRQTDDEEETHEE
Sequence of UniProt Q9CWG9 (Q9CWG9 whole entry): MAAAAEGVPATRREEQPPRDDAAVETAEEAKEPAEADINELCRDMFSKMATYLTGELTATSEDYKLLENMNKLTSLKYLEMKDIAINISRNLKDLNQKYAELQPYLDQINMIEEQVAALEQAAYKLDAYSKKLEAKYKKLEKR

On to “BLOS1 [biogenesis of lysosome-related organelles complex-1 (BLOC-1) subunit 1] (from UniProt O55102) mBloc1s1 (first XAT hexapeptide-repeat motif EALDVH changed to EVVDH or EVDH)”, for which the percent of parent with BLOS2 was determined as 5%; with KXD1, 10%; in the test with PALLIDIN, 22%; in the test with SNAPIN (uninfected cells cultured overnight, IP: BLOS1, parent: est. 100), 10%. Besides, the response with SNAPIN (parent: est. 0.67) is 0.07; with SNAPIN (parent: est. 1.0), 0.18.
